According to patent publication US20130017550:

How the values were obtained:
[1] = biological target: GST-PKC-θ, Q04759
[2] = biological target: Myc-PKC-θ

Chain of GST-PKC-θ, Q04759 (Q04759 whole entry, looked up): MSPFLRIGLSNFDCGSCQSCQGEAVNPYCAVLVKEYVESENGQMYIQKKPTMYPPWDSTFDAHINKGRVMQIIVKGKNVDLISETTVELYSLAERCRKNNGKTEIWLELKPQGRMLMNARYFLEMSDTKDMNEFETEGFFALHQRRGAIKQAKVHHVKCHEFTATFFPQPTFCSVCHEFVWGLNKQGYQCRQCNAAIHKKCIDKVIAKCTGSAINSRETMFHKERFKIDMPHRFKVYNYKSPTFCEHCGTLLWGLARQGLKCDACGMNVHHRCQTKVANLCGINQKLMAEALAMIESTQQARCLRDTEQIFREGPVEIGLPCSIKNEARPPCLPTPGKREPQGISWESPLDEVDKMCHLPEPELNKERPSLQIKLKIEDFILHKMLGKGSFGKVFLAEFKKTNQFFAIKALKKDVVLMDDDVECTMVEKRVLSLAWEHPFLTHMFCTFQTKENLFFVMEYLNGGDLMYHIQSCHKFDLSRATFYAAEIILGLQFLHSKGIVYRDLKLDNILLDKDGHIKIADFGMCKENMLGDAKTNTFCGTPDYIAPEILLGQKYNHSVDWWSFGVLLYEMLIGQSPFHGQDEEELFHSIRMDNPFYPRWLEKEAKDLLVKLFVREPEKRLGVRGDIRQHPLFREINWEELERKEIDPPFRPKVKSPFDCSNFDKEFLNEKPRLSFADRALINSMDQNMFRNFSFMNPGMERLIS

B1: Flag-GLK (protein)
chain: MAQEDFELIQRIGSGTYGDVYKARNVNTGELAAIKVIKLEPGEDFAVVQQEIIMMKDCKHPNIVAYFGSYLRRDKLWICMEFCGGGSLQDIYHVTGPLSELQIAYVSRETLQGLYYLHSKGKMHRDIKGANILLTDNGHVKLADFGVSAQITATIAKRKSFIGTPYWMAPEVAAVERKGGYNQLCDLWAVGITAIELAELQPPMFDLHPMRALFLMTKSNFQPPKLKDKMKWSNSFHHFVKMALTKNPKKRPTAEKLLQHPFVTQHLTRSLAIELLDKVNNPDHSTYHDFDDDDPEPLVAVPHRIHSTSRNVREEKTRSEITFGQVKFDPPLRKETEPHHELPDSDGFLDSSEEIYYTARSNLDLQLEYGQGHQGGYFLGADKSLLKSVEEELHQRGHVAHLEDDEGDDDESKHSTLKAKIPPPLPPKPKSIFIPQEMHSTEDENQGTIKRCPMSGSPAKPSQVPPRPPPPRLPPHKPVALGNGMSSFQLNGERDGSLCQQQNEHRGTNLSRKEKKDVPKPISNGLPPTPKVHMGACFSKVFNGCPLKIHCASSWINPDTRDQYLIFGAEEGIYTLNLNELHETSMEQLFPRRCTWLYVMNNCLLSISGKASQLYSHNLPGLFDYARQMQKLPVAIPAHKLPDRILPRKFSVSAKIPETKWCQKCCVVRNPYTGHKYLCGALQTSIVLLEWVEPMQKFMLIKHIDFPIPCPLRMFEMLVVPEQEYPLVCVGVSRGRDFNQVVRFETVNPNSTSSWFTESDTPQTNVTHVTQLERDTILVCLDCCIKIVNLQGRLKSSRKLSSELTFDFQIESIVCLQDSVLAFWKHGMQGRSFRSNEVTQEISDSTRIFRLLGSDRVVVLESRPTDNPTANSNLYILAGHENSY
With B1 the “PKC-θ-T538 phosphorylation in in vitro kinase assays using purified proteins (immunoblot)” value [1] was “PKC-θ-T538 was directly phosphorylated by GLK” and the “PKC-θ phosphorylation in in vitro kinase assays (immunoblot)” value [2] was “GLK phosphorylated PKC-θ at T538, but not at S676 or S695”.
